# From PMC3150355, “TAT-Mediated Transduction of MafA Protein In Utero Results in Enhanced Pancreatic Insulin Expression and Changes in Islet Morphology”
# Biological target: TAT-MafA (unphosphorylated, PBS treated) (human, UniProt Q8NHW3 1-353)
# Test: EMSA; unphosphorylated; basal DNA-binding activity; Pierce LightShift chemiluminescent EMSA kit; 200 fmol/ul biotin-DNA, unlabeled competitor 10 pmol/ul, 82.15 ug TAT-MafA; ERK2 or PBS 37 C 1 h, then 20 min binding; buffer, pH and binding temperature not stated
# Conditions: protein: recombinant; TAT PTD (11 aa) and 6xHis, pTAT-2.1 (pET28); chain copies: 2; blunt
# TAT-MafA (unphosphorylated, PBS treated), sequence (Q8NHW3 whole entry): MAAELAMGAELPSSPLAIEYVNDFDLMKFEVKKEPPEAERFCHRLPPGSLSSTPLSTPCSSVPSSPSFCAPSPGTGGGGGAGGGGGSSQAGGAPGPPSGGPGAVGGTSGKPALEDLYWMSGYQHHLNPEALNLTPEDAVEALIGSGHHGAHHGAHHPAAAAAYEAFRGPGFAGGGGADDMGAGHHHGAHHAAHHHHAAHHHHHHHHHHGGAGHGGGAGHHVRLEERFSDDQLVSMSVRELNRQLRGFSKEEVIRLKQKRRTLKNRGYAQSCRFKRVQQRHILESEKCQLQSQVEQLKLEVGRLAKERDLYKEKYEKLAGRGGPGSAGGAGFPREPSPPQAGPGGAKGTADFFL
binder,measurement,value
insulin promoter -139 to -104 (C1 box) (dsDNA) DNA 1: ATGGTCCGGAAATTGCAGCCTCAGCCCCCAGCCATC DNA 2: GATGGCTGGGGGCTGAGGCTGCAATTTCCGGACCAT,binding result,binds
